{
  "source": "patent US20050239704",
  "molecular_target": "T1, SarA (Staphylococcus aureus) (UniProt Q2G2U9)",
  "T1 sequence": "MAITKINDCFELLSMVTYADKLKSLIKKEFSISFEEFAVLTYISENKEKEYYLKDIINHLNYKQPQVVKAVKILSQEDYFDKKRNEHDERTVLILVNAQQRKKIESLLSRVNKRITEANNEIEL",
  "experiment": "EMSA",
  "settings": "2-5 ng radiolabeled P1 fragment; scale: fold more protein than SarR for complete shift",
  "data": [
    {"substance": "sarA P1 promoter fragment (nt 531-859)", "values": [
      {"measurement": "binding signal", "result": 10}
    ]}
  ]
}
